Reference: patent US6699715 (Bristol-Myers Squibb, dated 2004)
Blank lines part the entries; values can stand above or below the molecule they belong to.

What was measured:
human CD28 [1] = molecular target: T1, human CD28 (human, UniProt P10747 19-220); test: cell-based or functional assay
T1 construct: whole, on cells; also called CD28 receptor; CD28 CHO cells

L6 antigen [2] = molecular target: T2, L6 antigen (human, UniProt P30408 1-202); test: flow cytometry on L6 positive H2981 tumor cells
T2 construct: whole, on cells; also called tumor associated antigen L6; L6 molecule
T2 sequence (looked up): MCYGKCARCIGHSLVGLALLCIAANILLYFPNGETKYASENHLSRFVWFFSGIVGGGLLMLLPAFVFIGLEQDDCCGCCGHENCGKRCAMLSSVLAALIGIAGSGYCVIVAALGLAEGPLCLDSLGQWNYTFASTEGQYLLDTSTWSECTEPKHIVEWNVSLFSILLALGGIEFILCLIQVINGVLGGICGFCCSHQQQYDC

L6 antigen [3] = molecular target: T2, L6 antigen; test: flow cytometry on L6 positive H2981 tumor cells, FITC anti-human IgG
Method: (§1) FIGS. 15a/b/c are line graphs showing that the bispecific 9.3/L6 sFvIg fusion protein binds to L6+ H2981 tumor cells and to CD28+ CHO cells. Panel 15A: L6+ H2981 tumor cells were incubated with L6 sFvIg ( - - - - ) at 0.5 μg/ml or 9.3 sFvIg ( . . . . ) at 0.5 μg/ml or 9.3/L6 sFvIg (_____) fusion protein at 0.5 μg/ml or with medium alone ( . . . . ). Panel 15B: CD28 CHO cells were incubated with 9.3 sFvIg ( - - - - ) at 1 μg/ml or 9.3/L6 sFvIg fusion protein (_____) at 1 μg/ml, or with medium alone ( . . . . ). Bound protein was detected with FITC conjugated goat anti-human IgG at 1:100. Panel 15C: CD28+ PHA blasts were incubated with FITC conjugated L6 α-idiotype mAb 13B ( . . . . ) as negative control, bispecific 9.3/L6 sFvIg at 0.5 μg/ml and bound protein detected with FITC conjugated L6 α-idiotypic mAb 13B ( - - - - ). Preincubation of cells with unlabelled 9.3 sFvIg inhibited binding of bispecific 9.3/L6 sFvIg as shown by a significant reduction in FITC-13B staining (_____). A total of 10,000 cells were analyzed per sample.
(§2) Binding activity of the 9.3 and 9.3/L6 sFvIg Fusion Protein: The binding of each sFvIg fusion protein was assayed by immunostaining and FACS analysis. […] 9.3 sFvIg and 9.3/L6 sFvIg were incubated with CD28 CHO cells and binding was detected using FITC anti-human IgG as shown in FIG. 15B. […]

human CD28 [4] = molecular target: T1, human CD28; test: flow cytometry on CD28 CHO cells, FITC anti-human IgG
Method: as §1, §2

3H-Thymidine incorporation, + blasts; 9.3 mAb (human CD28 [1]): 58800
3H-Thymidine incorporation, + blasts; 9.3 mAb + 187.1 Ab (human CD28 [1]): 98300
Molecule: 9.3 monoclonal antibody

concentration of native L6 antibody that gives the same staining as 1 µg/ml of the fusion protein (L6 antigen [2]): 0.5 µg/mL
[3H]-thymidine incorporation of PHA blasts, 9.3/L6 at 0.05 µg/ml, +H3347 (human CD28 [1]): 97800 cpm
[3H]-thymidine incorporation of PHA blasts, 9.3/L6 at 0.05 µg/ml, no H3347 cells (human CD28 [1]): 4000 cpm
[3H]-thymidine incorporation of PHA blasts, 9.3/L6 at 0.1 µg/ml, +H3347 (human CD28 [1]): 115000 cpm
[3H]-thymidine incorporation of PHA blasts, 9.3/L6 at 0.1 µg/ml, no H3347 cells (human CD28 [1]): 9600 cpm
[3H]-thymidine incorporation of PHA blasts, 9.3/L6 at 0.5 µg/ml, +H3347 (human CD28 [1]): 145000 cpm
[3H]-thymidine incorporation of PHA blasts, 9.3/L6 at 0.5 µg/ml, no H3347 cells (human CD28 [1]): 69200 cpm
[3H]-thymidine incorporation of PHA blasts, untransfected H3347 preincubated with 9.3/L6 at 1 µg/ml, cells washed 3× (human CD28 [1]): 98000 cpm
proliferation of T cell blasts with 9.3/L6 sFvIg alone (FIG. 16) (human CD28 [1]): > 0.1 µg/mL
Molecule: bispecific 9.3/L6 sFvIg fusion protein (bispecific antibody)

binding result (L6 antigen [3]): no binding (tested: 1 µg/ml)
binding result (human CD28 [4]): binds
B1: 9.3 sFvIg (scFv, not shown: small tags and cut ends)
scFv: DIVLTQSPASLAVSLGQRATISCRASESVEYYVTSLMQWYQQKPGQPPKLLIFAASNVESGVPARFSGSGSGTNFSLNIHPVDEDDVAMYFCQQSRKVPYTFGGGTKLEIKRASGGGGSGGGGSGGGGSLAQVQLKESGPGLVTPSQSLSITCTVSGFSLSDYGVHWVRQSPGQGLECLGVIWAGGGTNYNSALMSRKSISKDNSKGQVFLKMKSLQADDTAVYYCARDKGYSYYYSMDYWGQGTSVTVSS
notes: Anti-human CD28 sFv of mouse mAb 9.3 fused to human Ig; from COS or CHO cells; also called 9.3 sFvIg fusion protein; monospecific 9.3 sFvIg
